Laboratory results taken from the nanobody polyreactivity screen of Harvey et al. (2022).

Experiment: yeast display, Sf9 membrane polyspecificity reagent, FACS + sequencing; frameworks hold sequencing errors
Summary of the method: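 Sorting gates, low and high (top ~1%), were placed on anti-HA fluorescence to track expression and on streptavidin fluorescence to track reagent binding. A clone's polyreactivity label is taken from the gate it came out of. The reagent was 10% biotinylated, detergent-solubilized Sf9 membrane, applied for 1 hour at 4 °C to galactose-induced yeast display cells.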
With “QVQLVESGGGLVQAGGSLRLSCAASGSTFYSYAMGWSRQAPGKERELVAAITRGGRTYYADSVKGRFTISRDNAKNTVYLQMNSLKPEDTAVYYCNVVTKFTGRGYDYWGQGTQVTVSS” the “polyreactivity (PSR sort gate)” value was “high polyreactivity”.
In the case of “QVQLVESGGGLVQAGGSLRLSCAASGSTFYSYAMGWYRQAPGKEREFVAAIRYSGGRTYADSVKGRFSISRDNAKNTVYLQMNSLKPEDTAVYYCAAVYYSYRWPYDYWGQGTQVTVSS”, the “polyreactivity (PSR sort gate)” value is reported as “high polyreactivity”.
For “QVQLVESGGGLVQAGGSLRLSCAASGSTFYSYAMVWYRPARGPERELVAAITSGGRTYYADSVKGRFTISRDNAKNTVYLQMNCLKPEDTAVYYCSADLPVFGGYRSNRFGYWGQGTQVTVSS”, the “polyreactivity (PSR sort gate)” value was “high polyreactivity”.
In the case of “QVQLVESGGGLVQAGGSLRLSCAASGSTFYSYGMGWYRPAPGKERELVAAITKRVGRTYYADSVKGRFTISRDNAKNTVYLQMNSLKPEDTAVYYCAARAWTRSVPYGFYYWGQGTQVTVSS”, the “polyreactivity (PSR sort gate)” value is reported as “high polyreactivity”.
In the case of “QVQLVESGGGLVQAGGSLRLSCAASGSTFYSYVIGWYRQAPGRESELVAVITSGGSTTYADSVNGRFTISRDNAKNTVYLEMNSLIPEDTAVYYCNAAYYNTDTQKVTFDYWGQGTQVTVSS”, the “polyreactivity (PSR sort gate)” value is reported as “low polyreactivity”.
In the case of “QVQLVESGGGLVQAGGSLRLSCAASGSTFYTNAMGWYRQAPGKERELVAAINRSGGRTYYADSVKGRFTISRDNAKNTVYLQMISLKPEDTAVYYCAARYPLRISTDTARDYYWGQGTQVTVSS”, the “polyreactivity (PSR sort gate)” value is reported as “low polyreactivity”.
With “QVQLVESGGGLVQAGGSLRLSCAASGSTFYTNAMGWYRQAPGTERELVAAINYSGGSTYYADSVKGRFTISRDNAKNTVYLQMNSQTPEDTAVYYCATDLHWLVTKYGYWGQGTQVTVSS” the “polyreactivity (PSR sort gate)” value was “low polyreactivity”.
With “QVQLVESGGGLVQAGGSLRLSCAASGSTFYTNVMGWYRQAPGKDRELVAAISYNSGSTSYADSVKGRFTISRDNAKNTVYLQMNSLKPEDTAVYYCAVRIRLRRARLSYDYWGQGTQVTVSS” the “polyreactivity (PSR sort gate)” value was “high polyreactivity”.
For “QVQLVESGGGLVQAGGSLRLSCAASGSTFYTYAMGWYRQAPGKERELVAAITSSGTTNYADSVKGRFTISRDNAKNTVYLQMNSLKPEDTAVYYCAKRSYGGTLHYAFDSWGQGTQVTVSS”, the “polyreactivity (PSR sort gate)” value was “low polyreactivity”.
For “QVQLVESGGGLVQAGGSLRLSCAASGSTFYTYDMGWYRQAPGKERELVASITSGGSTNYADSVKGRFTISRDNAKNTVYFQMYCMKPVDTAVYYCAVGTYTIYSGTLYDYKYYWGQGTVVTVSS”, the “polyreactivity (PSR sort gate)” value was “low polyreactivity”.
For “QVQLVESGGGLVQAGGSLRLSCAASGSTFYVNAMGWYRQAPGKERELVAYADSVKGRFTISRDNAKNTVYLQMNSLKPEDTAVYYCNADIEYRPGHGRLGDYDYWGQGTQVTVSS”, the “polyreactivity (PSR sort gate)” value was “low polyreactivity”.
In the case of “QVQLVESGGGLVQAGGSLRLSCAASGSTFYVYAMGSYRQAPGKERELVAAITRGGSTYYADSVKARFTISRDNAKNTVYLQMNSLKPEDTAVYYCAKYLTGAADLVPEYDYWGQGTQVTVSS”, the “polyreactivity (PSR sort gate)” value is reported as “low polyreactivity”.
For “QVQLVESGGGLVQAGGSLRLSCAASGSTFYVYAMGWYRQAPGKEREFVAAISFSSGSTYYADSVKGRFTISRDYAKNTVYLQMNSLKPEDTAVYYCAARYRYPRSIGYGYGGAFDYWGQGTQVTVSS”, the “polyreactivity (PSR sort gate)” value was “high polyreactivity”.
In the case of “QVQLVESGGGLVQAGGSLRLSCAASGSTFYVYAMGWYRQAPGKERELVAAIDSGDSTNYADSVKGRFTISRDNAKNTVYLQMNSLNPEDTAVYYCAVGYWDSRYRYDWPNSDYWGQGTQVTVSS”, the “polyreactivity (PSR sort gate)” value is reported as “low polyreactivity”.
In the case of “QVQLVESGGGLVQAGGSLRLSCAASGSTFYVYAMGWYRQAPGKERELVAAITVRGGSTYYADSVKGRFTISRDNAKYTVYLQMNSLKPEDTAVYYCAVDVSKPYYEMDYWGQGTQVTVSS”, the “polyreactivity (PSR sort gate)” value is reported as “high polyreactivity”.
With “QVQLVESGGGLVQAGGSLRLSCAASGSTFYVYDMGWYRQAPGKERELVAAITRRGGSTYYADSVKGRFTISRDNAKNTVYLQMNSLKPVDTAVYYCAARTAYYPTHRYYWGQGTQVTVSS” the “polyreactivity (PSR sort gate)” value was “high polyreactivity”.
With “QVQLVESGGGLVQAGGSLRLSCAASGSTFYWYAKGWYRQAPGKERELVAAITSTGGSTYADSVKGRFTISRDNAKNTVYLQMNSLKPEDTAVYYCNVDTSSPSRRDYDYWGQGTQVTVSS” the “polyreactivity (PSR sort gate)” value was “low polyreactivity”.
With “QVQLVESGGGLVQAGGSLRLSCAASGSTFYWYSMGWYRQAPGKERELVAAITSTGGSTYADSVKGRFTISRDNAKNTVYLQMNSLKPEDTAVYYCNVDTSSPSRRDYDYWGQGTQVTVSS” the “polyreactivity (PSR sort gate)” value was “low polyreactivity”.
With “QVQLVESGGGLVQAGGSLRLSCAASGSTFYWYTMGWYRQAPGKEREMVATITSVGRTNYADSVKGRFTISRDNAKNTVYLQMNSLKPEDTAVYYCAASKARWPRGGSKYYYWGQGTQVSVSS” the “polyreactivity (PSR sort gate)” value was “high polyreactivity”.
In the case of “QVQLVESGGGLVQAGGSLRLSCAASGSTFYYAIGRYRQAPGKERELVASITFSTGSTYYADSVKGRFTISRDNAKNTVYLQLNSLKPEDTAVYYCATGVDTYSLTVEHDSWGQGTQVTVSS”, the “polyreactivity (PSR sort gate)” value is reported as “low polyreactivity”.
With “QVQLVESGGGLVQAGGSLRLSCAASGSTFYYAMGWYRQAPGKERELVASITFSTGSTYYADSVKGRFTISRDNAKNTVYLQMTSLKPEDTAVYYCATGVDTYSLTVEHDSWGQGTQVTVSS” the “polyreactivity (PSR sort gate)” value was “low polyreactivity”.
For “QVQLVESGGGLVQAGGSLRLSCAASGSTFYYKSMGWYRQAPGKERELVAAITFTGGSTYADSVKGRFTISRDNAKNTVYLQMNSLIPEDTAVYYCAATIQGHDYLGTGYDYWGQGTQVTVSS”, the “polyreactivity (PSR sort gate)” value was “low polyreactivity”.
In the case of “QVQLVESGGGLVQAGGSLRLSCAASGSTFYYNAMGWYRQAPGKETELVADISWRGGITYYADSVKGRFTISRDNAKNTVYLQMNSLKPEDTAVYYCNADAESFDDGYWGQGTQVTVSS”, the “polyreactivity (PSR sort gate)” value is reported as “low polyreactivity”.
For “QVQLVESGGGLVQAGGSLRLSCAASGSTFYYNTMGWYRQAPGKERELVAAITSGDTTYYADSVKGRFTISRDNAKNTVYLQMNSLKPEDTAVYYCAAAWPYARYDYWGQGTQVTVSS”, the “polyreactivity (PSR sort gate)” value was “low polyreactivity”.
In the case of “QVQLVESGGGLVQAGGSLRLSCAASGSTFYYYAMGWSRQAPGKERELVAGITWSGGRTYYADSVKGRFTISRDNAKNTVYLQMNSLKTEDTAVYYCAASLYTWTYQPVYYRDGYWGQGTQVTVSS”, the “polyreactivity (PSR sort gate)” value is reported as “low polyreactivity”.
For “QVQLVESGGGLVQAGGSLRLSCAASGSTFYYYAMGWSRQAPGQERELVAAISWRGSSTYYADAVQGRFTISRDNAKNTVYLQLNSLKPEDTAVSYCAAGYPGRVSGYRYGTRATYYYWGQGTQVTVSS”, the “polyreactivity (PSR sort gate)” value was “high polyreactivity”.
In the case of “QVQLVESGGGLVQAGGSLRLSCAASGSTFYYYAMGWYRPAPGKERELVAAIRSDVSTNYADSVKGRFTISRDNAKNTVYLQMNSLKPEDTAVYYCAARFPWNRVTYDYWGQGTQVTVSS”, the “polyreactivity (PSR sort gate)” value is reported as “low polyreactivity”.
With “QVQLVESGGGLVQAGGSLRLSCAASGSTFYYYAMGWYRQAPGKEMELVAAISGSGGNTYYADSVKGRFTISRDNAKNTVYLQMNSLKPEDTAVYYCAADYGYPLGVSWYGYGYWGQGTQVTVSS” the “polyreactivity (PSR sort gate)” value was “low polyreactivity”.
For “QVQLVESGGGLVQAGGSLRLSCAASGSTFYYYAMGWYRQAPGKERELVAAIDRDDRTNYADSVKGRFTISRDNAKNTVYLQMNSLKPEDTAVYYCAAVEIYEYDYWGQGTQVTVSS”, the “polyreactivity (PSR sort gate)” value was “low polyreactivity”.
For “QVQLVESGGGLVQAGGSLRLSCAASGSTFYYYAMGWYRQAPGKERELVAAINSSGGNTYYADSVKGRFTISRDNAKNTVYLQMNSLKPEDTAVYYCATGQIAYSSYGPFDYWGQGTQVTVSS”, the “polyreactivity (PSR sort gate)” value was “low polyreactivity”.
For “QVQLVESGGGLVQAGGSLRLSCAASGSTFYYYAMGWYRQAPGKERELVAAINSSGGNTYYADSVKGRFTISRDNAKNTVYLQMNSLNPEDTAVYYCATEYYWLQDYDYWGHGTQVTVSS”, the “polyreactivity (PSR sort gate)” value was “low polyreactivity”.
With “QVQLVESGGGLVQAGGSLRLSCAASGSTFYYYAMGWYRQAPGKERELVAAISWSGGSTYYADSVKGRFTISRDNAKNTVYLQMNSLKPEDTAVYYCNKYVRFRGGAYVTGYDYWGQGTQVTVSS” the “polyreactivity (PSR sort gate)” value was “high polyreactivity”.
For “QVQLVESGGGLVQAGGSLRLSCAASGSTFYYYAMGWYRQAPGKERELVAAITKSGGSTYYADSVKGRFTISGDNAKNTVYLQMNTLKPEDTAVYYCAAYLRSGYKFDYWGQGTQVTVSS”, the “polyreactivity (PSR sort gate)” value was “low polyreactivity”.
For “QVQLVESGGGLVQAGGSLRLSCAASGSTFYYYAMGWYRQAPGKERELVAAITYSGGGTYYADSVKGRFTISRDNAKNTFYLQMNSLKPEDTAVYYCAKTIAVNTWYYYWGQGTQVTVSS”, the “polyreactivity (PSR sort gate)” value was “low polyreactivity”.
For “QVQLVESGGGLVQAGGSLRLSCAASGSTFYYYAMGWYRQAPGKERELVASISASGGNTYYADSVKGRFTISRDNAKNTVYLQMNSLKPEDTAVYYCAARARRSQSISLKYYYWGQGTQVTVSS”, the “polyreactivity (PSR sort gate)” value was “high polyreactivity”.
In the case of “QVQLVESGGGLVQAGGSLRLSCAASGSTFYYYAMGWYRQAPGKERELVASISDDGSTNYADSVKGRFTISRDNAKNTVYLQMNSLKPEDTAVYYCAAVWWHQFGSAWYQMGYWGQGTQVTVSS”, the “polyreactivity (PSR sort gate)” value is reported as “low polyreactivity”.
With “QVQLVESGGGLVQAGGSLRLSCAASGSTFYYYAMGWYRQAPGKERELVASITTGGGSTYYADSVKGRFTISRDNAKNTFYLEMNSLKPEDTAVYYCAAALSYYFWWYDYLGQGTQVTVSS” the “polyreactivity (PSR sort gate)” value was “low polyreactivity”.
For “QVQLVESGGGLVQAGGSLRLSCAASGSTFYYYAMGWYRQAPGKERELVATITSTGRTNYADSVKGRFTISRDNAKNTVYLQMNSLKPEDTAVYYCAALRRIQRPEYGYWGQGTQVTVSS”, the “polyreactivity (PSR sort gate)” value was “low polyreactivity”.
In the case of “QVQLVESGGGLVQAGGSLRLSCAASGSTFYYYARGWYRQAPGKERELVATITSGASTNYADSVKGRFTISRDNAKNTVYLQMNSLKPEDTAVYYCNAVSLTSYLPWSSYDYWGQGTQVTVSS”, the “polyreactivity (PSR sort gate)” value is reported as “low polyreactivity”.
In the case of “QVQLVESGGGLVQAGGSLRLSCAASGSTFYYYGMGWYRQAPGKERELVASISWGGGSTYYADSVKGRFTISRDNAKNTVYLQMNILKPEDTAVYYCATRGSYLGGLYDYWGQGTQVTVSS”, the “polyreactivity (PSR sort gate)” value is reported as “high polyreactivity”.
With “QVQLVESGGGLVQAGGSLRLSCAASGSTFYYYGMGWYRQAPGKESALVAAISSSGGNTYYADSVKGRFTISRDNAKNTVYLQMNSLKPEDTAVYYCARGGHRGYWGQGTQVTVSS” the “polyreactivity (PSR sort gate)” value was “low polyreactivity”.
